target: EPHB1 (UniProt P54762); test: phosphorylation enrichment, bacterial display (enrichment ratio); higher = better substrate or ligand; peptides without Tyr show the background
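Also: 11-residue human phosphosite peptides and single-mutation variants displayed on the E. coli surface, counted by deep sequencing, each peptide's frequency after selection divided by its frequency in the unselected input library; frequency after pTyr selection over input frequency; kinase dosed for 20-30% of maximal phosphorylation in three min.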

Chain of EPHB1 (P54762 whole entry, looked up): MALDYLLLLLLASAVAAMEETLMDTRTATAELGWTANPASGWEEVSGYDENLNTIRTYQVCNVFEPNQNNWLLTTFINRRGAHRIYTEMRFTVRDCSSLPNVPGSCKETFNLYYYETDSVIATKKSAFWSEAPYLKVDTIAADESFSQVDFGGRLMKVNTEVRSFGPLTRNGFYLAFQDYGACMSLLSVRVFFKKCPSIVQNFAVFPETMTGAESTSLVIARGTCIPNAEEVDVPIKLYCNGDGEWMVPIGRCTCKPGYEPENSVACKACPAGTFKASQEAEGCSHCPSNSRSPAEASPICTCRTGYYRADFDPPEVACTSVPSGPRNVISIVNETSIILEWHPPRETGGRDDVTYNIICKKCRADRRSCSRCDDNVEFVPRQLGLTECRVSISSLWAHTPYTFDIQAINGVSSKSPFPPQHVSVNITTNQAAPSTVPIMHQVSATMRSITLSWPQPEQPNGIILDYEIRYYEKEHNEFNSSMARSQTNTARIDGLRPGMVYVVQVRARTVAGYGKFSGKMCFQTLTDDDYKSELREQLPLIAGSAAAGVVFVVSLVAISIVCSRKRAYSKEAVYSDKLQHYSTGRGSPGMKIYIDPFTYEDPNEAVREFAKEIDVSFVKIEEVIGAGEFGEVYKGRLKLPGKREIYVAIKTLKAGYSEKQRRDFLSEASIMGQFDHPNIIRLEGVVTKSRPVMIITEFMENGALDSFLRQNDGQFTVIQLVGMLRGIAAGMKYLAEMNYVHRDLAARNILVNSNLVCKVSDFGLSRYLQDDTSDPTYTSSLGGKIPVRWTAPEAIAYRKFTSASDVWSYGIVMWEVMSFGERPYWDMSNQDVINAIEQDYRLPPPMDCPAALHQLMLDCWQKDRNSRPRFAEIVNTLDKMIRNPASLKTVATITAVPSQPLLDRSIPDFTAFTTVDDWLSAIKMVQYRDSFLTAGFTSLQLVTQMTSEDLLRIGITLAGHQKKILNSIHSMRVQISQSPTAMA

Going from EAEPFYCSLRD [NPHS1_Y1139_R1140C_YF] to HQKKPYCHAHN [NRAP_Y53], the phosphorylation enrichment falls from 1.19 to 1.08.

First: LTERDYSFVTT [ACTG2_Y199_G198D]
Second: LAVPLYKNGVK [CPS1_Y1069]
The phosphorylation enrichment of the first is higher: 2.38 for the first, 1.09 for the second.

Compared with YSNKLHYQLEQ [PDPR_Y109_Y109H], SVMAEYGLFGA [VSX2_Y219_YF] is lower in phosphorylation enrichment: 0.498 for the first, 0.477 for the second.

First: ADDSFYTARSA [ZAP70_Y493_YF]
Second: INNIDYYKKTT [FGFR2_Y656]
The phosphorylation enrichment of the first is higher: 0.597 for the first, 0.461 for the second.

First: EWQQIYTFDSG [JUP_Y20_T19I_YF]
Second: TRSYDYMEGED [FGF7_Y58_G62E]
The phosphorylation enrichment of the first is higher: 1.21 for the first, 0.711 for the second.

Compared with CTTIHYNFMCH [TP53_Y234_N239H_YF], VDHFGYNKDDK [APOB_Y740_T741N] is lower in phosphorylation enrichment: 0.558 for the first, 0.427 for the second.

First: VATRWYRSLEL [CDKL5_Y177_P180L]
Second: HFGCVYRGTLL [MET_Y1093_H1094R]
The phosphorylation enrichment of the first is lower: 0.447 for the first, 1.04 for the second.

First: PEIIAYQPFGK [PRKCG_Y529_YF]
Second: RAILNYIASKF [GSTA3_Y74_YF]
The phosphorylation enrichment of the first is higher: 0.635 for the first, 0.534 for the second.

Compared with VRSTEYPCAGL, TKDTFYQQPMF [GBA_Y451_K452Q] is higher in phosphorylation enrichment: 0.554 for the first, 0.583 for the second.

Compared with KEIHAYRKLLE [LMNA_Y376_M371K], APGNAYGDAGY [SYP_Y250_D248N] is higher in phosphorylation enrichment: 0.397 for the first, 0.515 for the second.

First: PFGQWYESHFA [RPS8_Y113_R110G_YF]
Second: FQEKSYIKGTS [LCTL_Y331_L326F]
The phosphorylation enrichment of the first is higher: 5.8 for the first, 0.33 for the second.

First: NHRNQYQALKT [CLSPN_Y887_P892T]
Second: EFNLMYHGTKE [IRF6_Y97_D98H]
The phosphorylation enrichment of the first is lower: 0.422 for the first, 0.631 for the second.

Going from VVSLFYGTALF [OR10C1_Y251_M246V] to VRFMADTDETF [F8_Y450_Y450D], the phosphorylation enrichment falls from 0.698 to 0.63.

Compared with VQNIVYRTASI [CYP39A1_Y102], SSWKLYPRMLR [HAO1_Y50_R46S] is higher in phosphorylation enrichment: 0.335 for the first, 0.457 for the second.

Going from KVALVYGQMNQ [ATP5F1B_Y269_E274Q] to AGREIYESEKC [TTN_Y4424_D4427E], the phosphorylation enrichment falls from 0.496 to 0.427.

First: TYQYKYPEGSS [TGM4_Y440_E437Q]
Second: TENAGYFFQVS
The phosphorylation enrichment of the first is higher: 0.548 for the first, 0.482 for the second.

ASRKFYAMKIL [AKT3_Y174_G171R_YF] gave a phosphorylation enrichment of 0.459.

tested on: c-Abl (mouse); test: as above

Compared with EAEPFYCSLRD [NPHS1_Y1139_R1140C_YF], HQKKPYCHAHN [NRAP_Y53] is higher in phosphorylation enrichment: 0.878 for the first, 2.3 for the second.

First: LTERDYSFVTT [ACTG2_Y199_G198D]
Second: LAVPLYKNGVK [CPS1_Y1069]
The phosphorylation enrichment of the first is higher: 0.888 for the first, 0.777 for the second.

First: YSNKLHYQLEQ [PDPR_Y109_Y109H]
Second: SVMAEYGLFGA [VSX2_Y219_YF]
The phosphorylation enrichment of the first is lower: 0.495 for the first, 0.594 for the second.

Going from ADDSFYTARSA [ZAP70_Y493_YF] to INNIDYYKKTT [FGFR2_Y656], the phosphorylation enrichment rises from 0.561 to 0.627.

Compared with EWQQIYTFDSG [JUP_Y20_T19I_YF], TRSYDYMEGED [FGF7_Y58_G62E] is lower in phosphorylation enrichment: 1.06 for the first, 0.919 for the second.

Going from CTTIHYNFMCH [TP53_Y234_N239H_YF] to VDHFGYNKDDK [APOB_Y740_T741N], the phosphorylation enrichment rises from 0.543 to 0.974.

Going from VATRWYRSLEL [CDKL5_Y177_P180L] to HFGCVYRGTLL [MET_Y1093_H1094R], the phosphorylation enrichment rises from 0.468 to 1.28.

Compared with PEIIAYQPFGK [PRKCG_Y529_YF], RAILNYIASKF [GSTA3_Y74_YF] is higher in phosphorylation enrichment: 0.672 for the first, 1.96 for the second.

Going from VRSTEYPCAGL to TKDTFYQQPMF [GBA_Y451_K452Q], the phosphorylation enrichment rises from 0.611 to 3.38.

Compared with KEIHAYRKLLE [LMNA_Y376_M371K], APGNAYGDAGY [SYP_Y250_D248N] is higher in phosphorylation enrichment: 0.489 for the first, 0.607 for the second.

First: PFGQWYESHFA [RPS8_Y113_R110G_YF]
Second: FQEKSYIKGTS [LCTL_Y331_L326F]
The phosphorylation enrichment of the first is higher: 0.764 for the first, 0.612 for the second.

Compared with NHRNQYQALKT [CLSPN_Y887_P892T], EFNLMYHGTKE [IRF6_Y97_D98H] is lower in phosphorylation enrichment: 0.753 for the first, 0.593 for the second.

Going from VVSLFYGTALF [OR10C1_Y251_M246V] to VRFMADTDETF [F8_Y450_Y450D], the phosphorylation enrichment falls from 1.21 to 0.856.

First: VQNIVYRTASI [CYP39A1_Y102]
Second: SSWKLYPRMLR [HAO1_Y50_R46S]
The phosphorylation enrichment of the first is lower: 0.467 for the first, 0.539 for the second.

Going from KVALVYGQMNQ [ATP5F1B_Y269_E274Q] to AGREIYESEKC [TTN_Y4424_D4427E], the phosphorylation enrichment falls from 0.829 to 0.708.

Compared with TYQYKYPEGSS [TGM4_Y440_E437Q], TENAGYFFQVS is higher in phosphorylation enrichment: 0.691 for the first, 0.89 for the second.

For ASRKFYAMKIL [AKT3_Y174_G171R_YF], the phosphorylation enrichment was 0.441.

Source: the supplement of paper PMC10065799, “High-throughput profiling of sequence recognition by tyrosine kinases and SH2 domains using bacterial peptide display” (eLife, 2023)
